Laboratory results published in patent US20250327097A1, “ORGANISMS PRODUCING LESS CROTONIC ACID” (Global Bioenergies, priority 2021, published 2025).
Where a chain is given by its changes, count along the chain named. Numbers in names are those of the source.

B1: N388M-K394R-C430N-L432F-L434W-S436N-H444N (protein)
chain: MFLKSLREQINLLKRQGDLRIINRPVDSYLEAAAIIRRSTETKAPVPLMTNIKGYPGCSIVGGLAALSSNPEYPLSRVAMSLGLSTTASAQSIVQYLIDGLKKTPYLPVEIDSNSAPCKQNILRGEDASLAHFPIPQVHQHDGNRYVNTWGVFIVESPDGQWCNWSIQRVQYLNDRQMIALVFPSQHISDIWEEWVKIGKPMPYALVQGCEPIVPYIAGLPLLERNVNEAEYIGALYGKGIEVVKCETHDLRVPASSEVVIEGYFAITREGVEGPFGEFAGYIPNENSLQPILSITAISWQDDPIWPVVAEGKPVDEYHTCSGIGDAAAIQNVLLTANLPVSFVWVPLYSACHLMIVSINRHWRQTHPDLTSEQLTKKVGDVIHQTRMSIKLPRIVVLDDDVDPADTESLLWALATRIHPERKRYFYESNIFPWLNCYSEEERNNRKGKRVIIDALLPENHGAISSFDYAYPDDIKQRVLMHWETDFSHD
B2: I283T-P284D-N287P-S322T-N388M-C430N-L432F-L434W-S436N-H461Y-dG462-S465V (protein)
chain: B1 chain with I283T, P284D, N287P, S322T, R394K, N444H, H461Y, S465V
B3: I283T-P284D-N287P-S322T-N388M-C430N-L432F-L434W-S436N-H461Y-dG462-A463T (protein)
chain: B1 chain with I283T, P284D, N287P, S322T, R394K, N444H, H461Y, A463T
B4: I283T-P284D-N287P-S322T-N388M-C430N-L432F-L434W-S436N-dG462-A463T (protein)
chain: B1 chain with I283T, P284D, N287P, S322T, R394K, N444H, A463T
B5: N388M-K394R-C430N-L432F-L434W-S436N-H444R (protein)
chain: B1 chain with N444R
B6: I283T-P284D-N287P-S322T-N388M-C430N-L432F-L434W-S436N-H461V-dG462-A463T (protein)
chain: B1 chain with I283T, P284D, N287P, S322T, R394K, N444H, H461V, A463T
B7: I283T-P284D-N287P-S322T-N388M-C430N-L432F-L434W-S436N-H461A-dG462-S465V (protein)
chain: B1 chain with I283T, P284D, N287P, S322T, R394K, N444H, H461A, S465V
B8: I283T-P284D-N287P-S322T-N388M-R422G-C430N-L432F-L434W-S436N-dG462 (protein)
chain: B1 chain with I283T, P284D, N287P, S322T, R394K, R422G, N444H
B9: I283T-P284D-N287P-S322T-N388M-E421V-C430N-L432F-L434W-S436N-H461T-dG462 (protein)
chain: B1 chain with I283T, P284D, N287P, S322T, R394K, E421V, N444H, H461T
B10: I283T-P284D-N287P-S322T-N388M-R422L-C430N-L432F-L434W-S436N-dG462 (protein)
chain: B1 chain with I283T, P284D, N287P, S322T, R394K, R422L, N444H
B11: I283T-P284D-N287P-S322T-N388M-C430N-L432F-L434W-S436N-H461V-dG462-A463T-S465V (protein)
chain: B1 chain with I283T, P284D, N287P, S322T, R394K, N444H, H461V, A463T, S465V
B12: I283T-P284D-N287P-S322T-N388M-C430N-L432F-L434W-S436N-dG462-A463I (protein)
chain: B1 chain with I283T, P284D, N287P, S322T, R394K, N444H, A463I
B13: I283T-P284D-N287P-S322T-N388M-C430N-L432F-L434W-S436N-H461V-dG462-S465V (protein)
chain: B1 chain with I283T, P284D, N287P, S322T, R394K, N444H, H461V, S465V
B14: I283T-P284D-N287P-S322T-N388M-C430N-L432F-L434W-S436N-dG462-A463S (protein)
chain: B1 chain with I283T, P284D, N287P, S322T, R394K, N444H, A463S
B15: I283T-P284D-N287P-S322T-N388M-C430N-L432F-L434W-S436N-H461T-dG462 (protein)
chain: B1 chain with I283T, P284D, N287P, S322T, R394K, N444H, H461T
B16: I283T-P284D-N287P-S322T-N388M-C430N-L432F-L434W-S436N-H461Y-dG462-A463T-S465V (protein)
chain: B1 chain with I283T, P284D, N287P, S322T, R394K, N444H, H461Y, A463T, S465V
B17: I283T-P284D-N285M-N287T-L289R-S322T-N388M-K394R-C430A-L432F-L434W-S436N-G462P-A463P (protein)
chain: B1 chain with I283T, P284D, N285M, N287T, L289R, S322T, N430A, N444H, G462P, A463P
B18: I283T-P284D-N287P-S322T-N388M-C430N-L432F-L434W-S436N-H461A-dG462 (protein)
chain: B1 chain with I283T, P284D, N287P, S322T, R394K, N444H, H461A
B19: I283T-P284D-N287P-S322T-N388M-C430N-L432F-L434W-S436N-H461Y-dG462 (protein)
chain: B1 chain with I283T, P284D, N287P, S322T, R394K, N444H, H461Y
B20: I283T-P284D-N287P-S322T-N388M-C430N-L432F-L434W-S436N-dG462-S465V (protein)
chain: B1 chain with I283T, P284D, N287P, S322T, R394K, N444H, S465V
B21: P25L-I283T-P284D-N287P-S322T-N388M-C430N-L432F-L434W-S436N-dG462 (protein)
chain: B1 chain with P25L, I283T, P284D, N287P, S322T, R394K, N444H
B22: I283T-P284D-N287P-S322T-N388M-C430N-L432F-L434W-S436N-dG462-A463T-S465V (protein)
chain: B1 chain with I283T, P284D, N287P, S322T, R394K, N444H, A463T, S465V
B23: I283T-P284D-N287P-S322T-N388M-C430N-L432F-L434W-S436N-H461V-dG462 (protein)
chain: B1 chain with I283T, P284D, N287P, S322T, R394K, N444H, H461V
B24: I283T-P284D-N287P-S322T-N388M-C430N-L432F-L434W-S436N-H461A-dG462-S465I (protein)
chain: B1 chain with I283T, P284D, N287P, S322T, R394K, N444H, H461A, S465I
B25: I283T-P284D-N287P-S322T-H384A-N388M-C430N-L432F-L434W-S436N-dG462 (protein)
chain: B1 chain with I283T, P284D, N287P, S322T, H384A, R394K, N444H
B26: I283T-P284D-N287P-S322T-N388M-C430N-L432F-L434W-S436N-H461A-dG462-A463T (protein)
chain: B1 chain with I283T, P284D, N287P, S322T, R394K, N444H, H461A, A463T
B27: I283T-P284D-N285M-N287T-S322T-N388M-K394R-C430T-L432F-L434W-S436N-G462P-A463P (protein)
chain: B1 chain with I283T, P284D, N285M, N287T, S322T, N430T, N444H, G462P, A463P
B28: I283T-P284D-N287P-S322T-N388M-E421V-R422F-C430N-L432F-L434W-S436N-dG462 (protein)
chain: B1 chain with I283T, P284D, N287P, S322T, R394K, E421V, R422F, N444H
B29: I283T-P284D-N287P-S322T-P368S-N388M-E421V-C430N-L432F-L434W-S436N-dG462 (protein)
chain: B1 chain with I283T, P284D, N287P, S322T, P368S, R394K, E421V, N444H
B30: I283T-P284D-N285M-N287T-L289M-S322T-N388M-K394R-C430A-L432F-L434W-S436N-G462P-A463P (protein)
chain: B1 chain with I283T, P284D, N285M, N287T, L289M, S322T, N430A, N444H, G462P, A463P
B31: N388M-K394R-C430N-L432F-L434W-S436N-H444T (protein)
chain: B1 chain with N444T
B32: I283T-P284D-N287P-S322T-N388M-C430N-L432F-L434W-S436N-dG462-A463F (protein)
chain: B1 chain with I283T, P284D, N287P, S322T, R394K, N444H, A463F
B33: I283T-P284D-N287P-S322T-N388M-C430N-L432F-L434W-S436N-H461A-dG462-A463T-S465V (protein)
chain: B1 chain with I283T, P284D, N287P, S322T, R394K, N444H, H461A, A463T, S465V

Test system: 3-methylcrotonic acid
Type: biochemical, Yersinia frederiksenii
Design: key: “+” representing a low increase in activity; “++++” representing a high increase in activity

| Molecule | Activity relative to WT |
| --- | --- |
| B1 | + |
| B2 | ++++ |
| B3 | ++++ |
| B4 | ++++ |
| B5 | + |
| B6 | ++++ |
| B7 | ++++ |
| B8 | ++++ |
| B9 | ++++ |
| B10 | ++++ |
| B11 | ++++ |
| B12 | ++++ |
| B13 | ++++ |
| B14 | ++++ |
| B15 | ++++ |
| B16 | ++++ |
| B17 | ++++ |

| Molecule | Activity relative to WT |
| --- | --- |
| B18 | ++++ |
| B19 | ++++ |
| B20 | ++++ |
| B21 | ++++ |
| B22 | ++++ |
| B23 | ++++ |
| B24 | ++++ |
| B25 | ++++ |
| B26 | ++++ |
| B27 | ++++ |
| B28 | ++++ |
| B29 | ++++ |
| B30 | ++++ |
| B31 | + |
| B32 | ++++ |
| B33 | ++++ |
